This note sets out measurements from patent US7691567B2, “Methods and compositions relating to fortilin, an anti-apoptotic molecule, and modulators of fortilin” (Board of Regents, the University of Texas System, priority 2000, dated 2010).

In one data set the target is FLAG-MCL1 (Homo sapiens, UniProt Q07820). It is filed as binding. To be noted: COS cell lysate, anti-HA immunoprecipitation.
In a further data set the target is p53 (Homo sapiens, UniProt P04637). The experiment in a line: Coimmunoprecipitation of fortilin and p53 from U2OS cell lysates. The data set is classed as binding. The arrangement: endogenous in cells; host or cells: U2OS. As for the experimental part:
As in example 2, studies were initiated to determine whether p53 and Fortilin specifically interact in U2OS cells. Six million U2OS cells stably expressing either HA-fortilin or HA-only were suspended in lysis-binding-wash buffer (50 mM HEPES, pH7.5, 70 mM KCl, 0.5 mM ATP, 5 mM MgSO4, 1 mM DTT, 0.1% NP40, 2 mg/mL BSA, Aprotinin, PMSF, MG132 and protease inhibitor cocktail). Cells were then mechanically disrupted by nitrogen excavitation method. Cleared total cell lysates were incubated with […] anti-HA antibody (3F10, Roche), followed by the incubation with anti-mouse IgG conjugated to magnetic beads (Dynal USA) and extensive wash with lysis-binding-wash buffer.
Further experiments were conducted to determine in vivo immunoprecipitation of fortilin by p53. Twenty million U2OS cells were suspended in lysis-binding buffer (50 mM HEPES, pH7.5, 70 mM KCl, 0.5 mM ATP, 5 mM MgSO4, 1 mM DTT, 0.001% NP40, 2 mg/mL BSA, Aprotinin, PMSF, MG132 and protease inhibitor cocktail). Cells were then mechanically disrupted by nitrogen excavitation method. Cleared total cell lysates were divided equally into two eppendorf tubes. To the first tube, anti-p53 antibody (DO-1, […]) was added, while […] control monoclonal antibody was added to the second tube. After incubation, formed complexes were precipitated by goat anti-mouse IgG conjugated to magnetic beads (Dynal USA), followed by extensive wash. […]

Data set [1] has as its system MCL1. The data set is classed as cell-based.
Data set [2] has as its target T1, MCL1 (Homo sapiens, UniProt Q07820). The data set can be described thus: Yeast two-hybrid assay, X-gal filter lift. It is filed as binding. Conditions: Saccharomyces cerevisiae SFY526 cells. The text has this:
Yeast two-hybrid assay. Saccharomyces cerevisiae SFY526 cells (CloneTech) were cotransformed with (a) empty pAS2.1 vector or pAS2.1 vector containing a full-length MCL1 construct and (b) empty pACT2 vector or pACT2 vector containing FL1, the original clone isolated from yeast two-hybrid screening and representative of the nearly full-length Fortilin molecule (amino acids 5-172). FL1 was redesignated as FortilinΔ5-172. Transformed cells were selected on SD plates lacking tryptophan and leucine (SD/-Trp/-Leu plates) for 7 days and subjected to a X-gal filter lift assay as described above. The blue color that developed within 8 hours was considered to represent a positive interaction.
The yeast two-hybrid system was employed to evaluate any interaction between Fortilin and MCL1. Saccharomyces cerevisiae SFY526 cells were co-transformed with pAS2.1 or pAS2.1-MCL1 and pGAD GH or pGAD GH-FL1, the 5th-172st amino acids of Fortilin. Transformed cells were selected on SD/-Trp/-Leu plates. Grown colonies on these selection plates were subjected to a X-gal filter lift assay, as the reporter gene was […] under the control of a promoter containing the element recognized by the DNA binding domain. […] MCL1 consists of four BH (Bcl-2 homology) domains and two PEST (proline (P), glutamic acid (E), serine (S) and threonine (T)) sequences. “CHT” denotes the C-terminus Hydrophobic Tail. […]

A further data set has as its system U2OS cells. Conditions: U2OS stable transfectants of HA-tagged Fortilin or deletion mutants, 5 μg/mL etoposide 48 hours.
For data set [3], the target named is T1, MCL1. The data set can be described thus: In vitro pull-down assay of HA-tagged Fortilin or mutants with MCL1. It is filed as binding. To be noted: in vitro translated 35S-labeled proteins, anti-HA pull-down.
In data set [4] the target is T1, MCL1. The data set can be described thus: In vivo coimmunoprecipitation assay in U2OS stable transfectants of Fortilin and mutants. Conditions: anti-HA immunoprecipitation.
Text: In vivo coimmunoprecipitation assay. COS-7 cells (2.5×10^6) were cotransfected with pcDNA3-Fortilin-HA or pcDNA3 and with FLAG-MCL1/pFLAG-CMV or pFLAG-CMV vectors using FuGENE6 (Roche Molecular Biochemicals), according to the manufacturer's instructions. […] Formed complexes were precipitated by sheep anti-rat antibodies conjugated to Dynabead™ (Dynal USA); washed with Buffers A and B; eluted into SDS gel loading buffer; and subjected to SDS-PAGE, Western blot transfer and immuodetection with anti-HA (16B12; Covance, Richmond, Calif.) and anti-FLAG (M2; Sigma) antibodies. […] Cells were harvested by scraping, washed with chilled PBS, suspended in Buffer C (Buffer A supplemented with 0.02% NP-40), and lysed by a nitrogen cavitation method (PARR Instrument Co). […] Formed complexes were precipitated by sheep anti-rat antibodies conjugated to Dynabeads™ (Dynal USA); washed with Buffers C; eluted into SDS gel loading buffer; and subjected to SDS-PAGE, Western blot transfer and immuodetection with anti-HA (16B12; Covance, Richmond, Calif.) and anti-MCL1 (Santa Cruz Biotechnology) antibodies.

Read-outs that look alike come from different tables or passages of the source.

T1 sequence (Q07820 whole entry, the tested form may be a part): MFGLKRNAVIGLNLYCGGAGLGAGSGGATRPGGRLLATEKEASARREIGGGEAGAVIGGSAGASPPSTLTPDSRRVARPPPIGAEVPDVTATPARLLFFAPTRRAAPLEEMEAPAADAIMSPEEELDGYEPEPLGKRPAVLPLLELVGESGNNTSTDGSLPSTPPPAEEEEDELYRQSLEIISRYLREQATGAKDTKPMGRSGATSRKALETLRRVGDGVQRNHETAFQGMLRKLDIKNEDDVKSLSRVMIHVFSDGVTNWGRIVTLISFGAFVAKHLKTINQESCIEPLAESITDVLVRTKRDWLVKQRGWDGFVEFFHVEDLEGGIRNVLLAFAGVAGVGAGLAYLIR
Chain of p53 (P04637 whole entry, species assumed): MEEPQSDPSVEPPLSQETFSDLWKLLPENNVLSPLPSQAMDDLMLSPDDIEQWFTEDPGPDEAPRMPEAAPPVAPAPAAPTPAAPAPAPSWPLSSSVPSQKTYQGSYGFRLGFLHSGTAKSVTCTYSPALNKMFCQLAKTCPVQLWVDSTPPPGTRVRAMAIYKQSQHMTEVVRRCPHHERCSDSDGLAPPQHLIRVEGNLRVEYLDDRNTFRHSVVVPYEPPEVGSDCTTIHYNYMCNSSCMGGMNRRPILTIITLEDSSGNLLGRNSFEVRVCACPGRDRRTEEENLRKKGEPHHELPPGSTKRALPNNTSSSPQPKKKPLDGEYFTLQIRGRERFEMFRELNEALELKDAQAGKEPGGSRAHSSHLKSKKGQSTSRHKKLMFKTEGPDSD
Chain of FLAG-MCL1 (Q07820 whole entry): as the sequence (Q07820 whole entry, the tested form may be a part) above
Text for U2OS cells: Generation and characterization of U2OS cells stably expressing Fortilin. U2OS cells were transfected with empty pcDNA6, a mammalian expression vector containing a blasticidine resistance gene (Invitrogen, Carlsbad, Calif.), or with pcDNA6 vector encoding wild-type Fortilin, by using FuGENE6 (Roche Molecular Biochemicals) according to the manufacturer's instructions. Transfected cells were selected for approximately 3 weeks and characterized by Western blot analysis. For the cytotoxicity assay, U2OS cells stably expressing wild-type Fortilin (U2OS.F) and U2OS cells stably harboring empty pcDNA6 (U2OS.E) were seeded in a 96 well plate in quadruplicate. For the investigation of dose response, cells were challenged with various concentrations of etoposide (0-20 μg/mL) for 48 hours. For the time course study, cells were challenged with 5 μg/mL of etoposide and harvested after various incubation periods (0-96 hours). In both cases, the cell media were assayed for the lactate dehydrogenase (LDH) activity released from the cytosol of damaged cells, using a cytotoxicity detection kit (Roche Molecular Biochemicals) according to the manufacturer's instructions. The cytotoxicity index was calculated as follows: (LDH activity in the media−background LDH activity)÷(LDH activity in the medium of cells lysed by 1% Triton X-100−background LDH activity)×100.
Cell death assay. U2OS cells stably expressing Fortilin or its mutants were seeded in 96-well plates in triplicate. Cells were then challenged with 5 μg/mL of etoposide (Sigma) for 48 hours. Then the cell media were assayed for the lactate dehydrogenase (LDH) activity released from the cytosol of damaged cells, using a Cytotoxicity Detection Kit (Roche Molecular Biochemicals), according to the manufacturer's instructions. The cytotoxicity index was calculated as follows: (LDH activity in the media−background LDH activity)/(LDH activity in the medium of the cells lysed by 1% Triton X-100−background LDH activity)×100.
Statistical analysis. For analysis of the statistical significance of differences in cytotoxicity indices among cells stably transfected with Fortilin, its mutants or control plasmids, Student's t-test was performed using a commercial software (Minitab Inc., State College, Pa.). In all cases, a P-value less than 0.05 was considered to be statistically significant.

Take “Fortilin-HA: influenza hemagglutinin-tagged Fortilin”: the “co-precipitation of FLAG-MCL1 in vivo” value with FLAG-MCL1 is given as “FLAG-MCL1 was co-precipitated only in the presence of immunoprecipitated Fortilin-HA”. Further, in the data set with p53, the “co-precipitation of fortilin and p53 in vivo” value was “the presence of fortilin was necessary and sufficient for the co-precipitation of p53”. In the data set with MCL1 [1], the “intracellular localization of MCL1” value is recorded as “MCL1 was consistently localized in the nucleus just as it was in the cells transfected with empty vector”.

B1: FortilinΔ5-172: nearly full-length Fortilin molecule (amino acids 5-172) (protein)
chain: RDLISHDEMFSDIYKIREIADGLCLEVEGKMVSRTEGNIDDSLIGGNASAEGPEGEGTESTVITGVDIVMNHHLQETSFTKEAYKKYIKDYMKSIKGKLEEQRPERVKPFMTGAAEQIKHILANFKNYQFFIGENMNPDGMVALLDYREDGVTPYMIFFKDGLEMEKC
modifications: left off: small tags and cut ends
B1: the “interaction with MCL1 in yeast (X-gal activity)” value with MCL1 [2] is recorded as “X-gal activity was observed”. In addition, the “cytotoxicity index relative to control transfectants” value in the data set with U2OS cells was “significantly lower”; in the data set on U2OS cells (listed as fortilinΔ5-172), “significantly lower than the cytotoxicity index of control cells”. For the same molecule, the “interaction / co-immunoprecipitation with MCL1 in vitro” value with MCL1 [3] is “interacted”; in the data set with MCL1 [3] (listed as Fortilin (5-172)), “co-immunoprecipitated MCL1 in vitro”. Besides, the “co-immunoprecipitation of MCL1 in vivo” value in the data set with MCL1 [4] is listed as “co-immunoprecipitated MCL1”.
